Laboratory results from patent US20260124313A1, “SITE-SPECIFIC COVALENT LIGATION OF HUMAN SERUM ALBUMIN” (The Regents of the University of California, priority 2022, published 2026).
Non-standard residues stand in square brackets, D forms with d. No end group written: not given here. *: point of attachment. Myristoyl = CCCCCCCCCCCCCC(=O)*; Aad = N[C@@H](CCCC(=O)O)C(=O)O; Acryloyl = C=CC(=O)*

Molecular target: T1, albumin in human serum (Homo sapiens, UniProt P02768)
T1 construct: tissue Sigma Aldrich; host or cells: human serum
Assay: Conjugation to serum-borne HSA in human serum, SDS-PAGE fluorescence and Coomassie Blue
Format: biochemical
Experimental: Protein SDS-PAGE gels were exposed at green channel (Exc.=490 nm, Emm.=525 nm), then stained by Coomassie Blue.
To 100 μl human serum was added 10 μl FC-LYL1 or 10 μl FC-Mal stock solution (1 mM). The albumin content in serum is presumed to be 600 μM for healthy donors. The final concentrations of albumin and FC-labeled reactive probes in the reaction mixture are calculated to be 545 µM and 91 μM, respectively. The serum/ligands mixture was incubated at 37° C. in dark. The conjugation reactions were setup every 3 days, and […] conjugation reactions were setup in total for 3 weeks. The serum mixtures were subjected to electrophoresis and Coommassie Blue Staining without further treatment. Since albumin to probe ratio was about 6:1 and there are 5 known fatty acid binding sites on each albumin molecule, fatty acid binding site:probe ratio was over […]. We therefore believe significant portion of the reactive probes would be sequestered in the “non-productive” (no covalent ligation) fatty acid binding sites most of the time.

- reaction speed in human serum (545 μM albumin, 91 μM probe, 37° C.): slow reaction over days
- selectivity of protein labeling in serum (human serum, SDS-PAGE green channel): can selectively label albumin content
Substance: FC-LYL1: FITC-tagged LYL1 (Myristoyl-[dE]DK(Acryloyl)[dS][Aad]; not fully specified (C-terminus); also: FITC on amino group of C-terminal lysine)
